From paper PMC4977500, “Rescuing neuronal cell death by RAIDD- and PIDD- derived peptides and its implications for therapeutic intervention in neurodegenerative diseases” (Scientific Reports, 2016)

B1: RAIDD DD (domain or fragment)
chain: not shown
notes: RAIDD death domain, amino acids 94-199; also called RAIDD death domain; source: E. coli BL21 (DE3) RILP, purified
B2: PIDD DD (domain or fragment, UniProt Q9HB75 777-883, looked up)
chain: LNLGDAETGFLTQSNLLSVAGRLGLDWPAVALHLGVSYREVQRIRHEFRDDLDEQIRHMLFSWAERQAGQPGAVGLLVQALEQSDRQDVAEEVRAVLELGRRKYQDS
notes: PIDD death domain, amino acids 777-883; The His tag is named on the protein for the pull-down; also called his-tagged PIDD DD; PIDD death domain; source: E. coli BL21 (DE3) RILP, purified

Assays:
Details in all cases: both partners purified
PIDD DD = target: B2; assay: native gel or EMSA; native-PAGE on a PhastSystem, 8-25% acrylamide gradient gels, Coomassie staining; complexes in 20 mM Tris pH 8.0, 50 mM NaCl; pre-incubated with or without peptide for 1 hour at room temperature; complex band without peptide taken as 100%
full-length RAIDD = target: T1, full-length RAIDD (UniProt P78560 1-199); assay: as above
T1 construct: RAIDD, full length, amino acids 1-199; source: E. coli BL21 (DE3), purified (Ni-NTA, S-200 gel filtration)

[1] = target: T2, Full-length RAIDD without any tag (UniProt P78560 1-199); assay: pull-down; his-tagged PIDD DD on Ni-NTA beads, full-length RAIDD without any tag, with RDH3 or PDH3 (30 μM or 500 μM); wash 20 mM Tris-HCl pH 7.9, 500 mM NaCl, 30 mM imidazole; eluate on SDS-PAGE
T2 construct: RAIDD, full length, amino acids 1-199; source: E. coli BL21 (DE3), purified

RAIDD DD = target: B1; assay: native gel or EMSA; native-PAGE on a PhastSystem, 8-25% acrylamide gradient gels, Coomassie staining; complexes in 20 mM Tris pH 8.0, 50 mM NaCl; pre-incubated with or without peptide for 1 hour at room temperature; complex band without peptide taken as 100%
RAIDD DD, sequence (P78560 94-199): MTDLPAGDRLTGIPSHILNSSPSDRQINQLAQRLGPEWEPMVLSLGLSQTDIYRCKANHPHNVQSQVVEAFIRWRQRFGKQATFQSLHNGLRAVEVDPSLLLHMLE

T2 sequence (P78560 whole entry, the tested form may be a part): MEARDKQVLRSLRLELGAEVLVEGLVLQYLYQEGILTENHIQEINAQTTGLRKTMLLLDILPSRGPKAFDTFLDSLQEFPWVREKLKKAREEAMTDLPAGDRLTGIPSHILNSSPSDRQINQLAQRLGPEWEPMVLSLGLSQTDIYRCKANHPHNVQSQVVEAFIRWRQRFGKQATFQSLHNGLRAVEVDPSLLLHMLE
T1 sequence (P78560 whole entry, the tested form may be a part): as above

B1: binds (PIDD DD).

B2: binds (full-length RAIDD); binds [1].

B3: RDH3 (TAT-fused peptide with wildtype RAIDD DD helix 3) (peptide)
peptide: YGRKKRRQRRRGGGGLSQTDIYRCKANHPHNV
notes: RAIDD helix 3 (H3 of the death domain), wildtype; FITC-labelled versions were also made, but only for microscopy of cell entry; also called RAIDD DD H3; source: synthetic peptide (Peptron)
In the case of B3, the “fold inhibitory capacity against TAT-Y814A (blocking of RAIDD DD:PIDD DD)” value (PIDD DD) is reported as over 5 fold.

B4: PDH3 (TAT-fused peptide with wildtype PIDD DD helix 3) (peptide)
peptide: YGRKKRRQRRRGGGGVSYREVQRIRHEFR
notes: PIDD helix 3 (H3 of the death domain), wildtype; FITC-labelled versions were also made, but only for microscopy of cell entry; also called PIDD H3; source: synthetic peptide (Peptron)
In the case of B4, the “fold inhibitory capacity against TAT-Y814A (blocking of RAIDD DD:PIDD DD)” value (RAIDD DD) is reported as over 5 fold.
